The values below are quoted from earlier work in patent US20110015134A1, “Method of treatment for early stage cancer” (priority 2007, published 2011).

Series [1] has as its system wound healing associated tumor growth. The conditions noted are these: reported in the literature.
The conditions of series [2]: in vivo.
For series [3] the following is noted: at any level, at any concentration.
The conditions of series [4]: in vivo. This is another data set of the same source.

On to `COc1ccc2c(c1)c(CC(=O)O)c(C)n2C(=O)c1ccc(Cl)cc1` [Indomethacin], for which, in series [1], the “prevention of wound healing associated / surgery induced tumor growth” value is on record as “effective in preventing wound healing associated tumor growth”. In the case of `O=S1(=O)CCN(CN2CCS(=O)(=O)NC2)CN1` [Taurolidine], in series [1], the “prevention of wound healing associated / surgery induced tumor growth” value is “can prevent surgery induced tumor growth”.

For the compound “Avastin: angiogenesis inhibitor that inhibits VEGF”, the dose limiting toxicity result in series [2] is “some dose limiting toxicity mainly hypertension”. With Endostatin, the toxicity entry in series [3] is given as “never been shown to exhibit toxicity at any level at any concentration”. For the same compound, the half-life result in series [4] was “half-life is short”.
